# Laboratory results reported in patent publication US20230357354A1, “CD38-BINDING CD31 PEPTIDES AND USES THEREOF” (ENCEFA, priority 2020, published 2023).
# Biological target: recombinant His-tagged CD38 (Homo sapiens, UniProt P28907)
# Assay: Pepscan-based ELISA of His-tagged CD38 on CD31 peptide arrays
# Format: binding
# Conditions: for Value (binding intensity of His-tagged CD38), LOOP7 conformational peptide array: mimic type LOOP7 (single loop, mP2 CLIPS); for Value (binding intensity of His-tagged CD38), LOOP7 conformational peptide array / Value (binding intensity of His-tagged CD38), BET conformational peptide array / Value (binding intensity of His-tagged CD38), LOOP15 conformational peptide array: sample with the highest signal; for Value (binding intensity of His-tagged CD38), LIN15 linear peptide array: mimic type LIN15, sample with the highest signal (His-tagged CD38 9 or 20 µg/mL); for Value (binding intensity of His-tagged CD38), BET conformational peptide array: mimic type BET (β-turn mimic, mP2 CLIPS); for Value (binding intensity of His-tagged CD38), LOOP15 conformational peptide array: mimic type LOOP15 (single loop, mP2 CLIPS)
# Text: Different sets of sCD31 peptides were synthesized according to the following designs. Note that actual order of peptides on mini-cards in some was randomized. • Set #1 • Mimic type: linear • Label: LIN15 • Linear peptides of 15 consecutive amino acid residues in length, derived from the target sequence of sCD31 with an offset of […]. • Set #2 • Mimic type: single loop (mP2 CLIPS) • Label: LOOP7 • Constrained peptides of 9 amino acid residues in length. On positions 2-8 are incorporated 7 consecutive amino acid residues derived from the target sequence of sCD31 with an offset of 1.3 residues. Cys residues were inserted on positions 1 and 9 and joined by mP2 CLIPS in order to create a loop mimic. Native Cys residues, if present, were replaced by Ser residues. • Set #3 • Mimic type: single loop, (mP2 CLIPS) • Label: LOOP15 • Constrained peptides of 17 amino acid residues in length. On positions 2-16 are incorporated 15 consecutive amino acid residues derived from the target sequence of sCD31 with an offset of […]. Cys residues were inserted on positions 1 and 17 and joined by mP2 CLIPS in order to create a loop mimic. Native Cys residues, if present, were replaced by Ser residues. • Set #4 • Mimic type: β-turn peptide mimics (mP2 CLIPS) • Label: BET • β-turn peptide mimics of 22 amino acid residues in length. On positions 2-21 are incorporated 20 consecutive amino acid residues derived from the target sequence of sCD31 with an offset of 1.3 residues. Residues on positions 11 and 12 are replaced by a Pro-Gly motif in order to induce the β-turn formation. Cys residues were inserted on positions 1 and 22 and joined by mP2 CLIPS in order to stabilize the mimic. Native Cys residues, if present, were replaced by Ser residues.
# To reconstruct epitopes of sCD31, a library of peptide-based peptide mimics was synthesized using Fmoc-based solid-phase peptide synthesis. An amino functionalized polypropylene support was obtained by grafting with a hydrophilic polymer formulation, followed by reaction with t-butyloxycarbonyl-hexamethylenediamine (BocHMDA) using dicyclohexylcarbodiimide (DCC) with N-hydroxybenzotriazole (HOBt) and subsequent cleavage of the Boc-groups using trifluoroacetic acid (TFA).
# Standard Fmoc-peptide synthesis was used to synthesize peptides on the amino-functionalized solid support by custom modified JANUS liquid handling stations (Perkin Elmer).
# Synthesis of structural mimics was done using CLIPS technology. CLIPS technology allows to structure peptides into single loops, double loops, triple loops, sheet-like folds, helix-like folds, and combinations thereof. CLIPS templates are coupled to cysteine residues. The side-chains of multiple cysteines in the peptides are coupled to one or two CLIPS templates. For example, a 0.5 mM solution of the P2 CLIPS (2,6-bis(bromomethyl)pyridine) is dissolved in ammonium bicarbonate (20 mM, pH 7.8)/acetonitrile (1:3, v/v). This solution is added onto the peptide arrays. The CLIPS template binds to side-chains of two cysteines as present in the solid-phase bound peptides of the peptide-arrays (455 wells plate with 3-µL wells). The peptide arrays are gently shaken in the solution for 30 to 60 minutes while completely covered in solution.
# Finally, the peptide arrays are washed extensively with excess of H2O and sonicated in disrupt-buffer containing 1% SDS / 0.1 % 2,2′-(ethylenedioxy)diethanethiol in PBS (pH 7.2) at 70° C. for 30 minutes, followed by sonication in H2O for another 45 minutes.
# The binding of the sample (recombinant His-tagged CD38; 9 µg/mL and 20 µg/mL) to each of the synthesized peptides was tested in a pepscan-based ELISA. The peptide arrays were incubated with primary sample solution (overnight at 4° C.). […]
substance,measurement,value
214 (CDVEYQSVC) [compound 214],"Value (binding intensity of His-tagged CD38), LOOP7 conformational peptide array",556 mAU
196 (CQNFVILEC) [compound 196],"Value (binding intensity of His-tagged CD38), LOOP7 conformational peptide array",942 mAU
104 (KVSSIVVNITELFSK) [compound 104],"Value (binding intensity of His-tagged CD38), LIN15 linear peptide array",155 mAU
205 (CIVVNITEC) [compound 205],"Value (binding intensity of His-tagged CD38), LOOP7 conformational peptide array",630 mAU
200 (CAQEFPEIC) [compound 200],"Value (binding intensity of His-tagged CD38), LOOP7 conformational peptide array",429 mAU
266 (CTSHVKPQHQPGFYKDDVLFYC) [compound 266],"Value (binding intensity of His-tagged CD38), BET conformational peptide array",725 mAU
230 (CQHQMLFYKDDVLFYNC) [compound 230],"Value (binding intensity of His-tagged CD38), LOOP15 conformational peptide array",600 mAU
210 (CYDAQFEVC) [compound 210],"Value (binding intensity of His-tagged CD38), LOOP7 conformational peptide array",628 mAU
267 (CSHVKPQHQMPGYKDDVLFYNC) [compound 267],"Value (binding intensity of His-tagged CD38), BET conformational peptide array",662 mAU
83 (NFVILEFPVEEQDRV) [compound 83],"Value (binding intensity of His-tagged CD38), LIN15 linear peptide array",631 mAU
234 (CLFYKDDVLFYNISSMC) [compound 234],"Value (binding intensity of His-tagged CD38), LOOP15 conformational peptide array",497 mAU
268 (CVKPQHQMLFPGDDVLFYNISC) [compound 268],"Value (binding intensity of His-tagged CD38), BET conformational peptide array",792 mAU
80 (DQNFVILEFPVEEQD) [compound 80],"Value (binding intensity of His-tagged CD38), LIN15 linear peptide array",963 mAU
77 (KNSRDQNFVILEFPV) [compound 77],"Value (binding intensity of His-tagged CD38), LIN15 linear peptide array",502 mAU
231 (CHQMLFYKDDVLFYNIC) [compound 231],"Value (binding intensity of His-tagged CD38), LOOP15 conformational peptide array",564 mAU
6 (NSRDQNFVILEFPVE; Human sCD31 peptide) [compound 6],"Value (binding intensity of His-tagged CD38), LIN15 linear peptide array",1230 mAU
264 (CKVSSIVVNITELFSKC) [compound 264],"Value (binding intensity of His-tagged CD38), LOOP15 conformational peptide array",211 mAU
101 (RISKVSSIVVNITEL) [compound 101],"Value (binding intensity of His-tagged CD38), LIN15 linear peptide array",572 mAU
262 (CISKVSSIVVNITELFC) [compound 262],"Value (binding intensity of His-tagged CD38), LOOP15 conformational peptide array",795 mAU
188 (CFIPEVRIC) [compound 188],"Value (binding intensity of His-tagged CD38), LOOP7 conformational peptide array",414 mAU
233 (CMLFYKDDVLFYNISSC) [compound 233],"Value (binding intensity of His-tagged CD38), LOOP15 conformational peptide array",630 mAU
229 (CKPQHQMLFYKDDVLFC) [compound 229],"Value (binding intensity of His-tagged CD38), LOOP15 conformational peptide array",467 mAU
277 (CSKVESSRISPGSSIVVNITEC) [compound 277],"Value (binding intensity of His-tagged CD38), BET conformational peptide array",839 mAU
271 (CKDDVLFYNIPGMKSTESYFIC) [compound 271],"Value (binding intensity of His-tagged CD38), BET conformational peptide array",695 mAU
211 (CDAQFEVIC) [compound 211],"Value (binding intensity of His-tagged CD38), LOOP7 conformational peptide array",429 mAU
16 (CSEVLRVKVIPGVDEVQISILC; Human CD31 peptide) [compound 16],"Value (binding intensity of His-tagged CD38), BET conformational peptide array",649 mAU
173 (CNLTLQSFC) [compound 173],"Value (binding intensity of His-tagged CD38), LOOP7 conformational peptide array",370 mAU
189 (CEVRIYDSC) [compound 189],"Value (binding intensity of His-tagged CD38), LOOP7 conformational peptide array",642 mAU
204 (CSIVVNITC) [compound 204],"Value (binding intensity of His-tagged CD38), LOOP7 conformational peptide array",387 mAU
36 (MLFYKDDVLFYNISS) [compound 36],"Value (binding intensity of His-tagged CD38), LIN15 linear peptide array",451 mAU
179 (CLFYKDDVC) [compound 179],"Value (binding intensity of His-tagged CD38), LOOP7 conformational peptide array",604 mAU
237 (CYNISSMKSTESYFIPC) [compound 237],"Value (binding intensity of His-tagged CD38), LOOP15 conformational peptide array",370 mAU
239 (CISSMKSTESYFIPEVC) [compound 239],"Value (binding intensity of His-tagged CD38), LOOP15 conformational peptide array",499 mAU
175 (CLQSFADVC) [compound 175],"Value (binding intensity of His-tagged CD38), LOOP7 conformational peptide array",561 mAU
227 (CHVKPQHQMLFYKDDVC) [compound 227],"Value (binding intensity of His-tagged CD38), LOOP15 conformational peptide array",431 mAU
5 (CSTESYFIC; Human sCD31 peptide) [compound 5],"Value (binding intensity of His-tagged CD38), LOOP7 conformational peptide array",668 mAU
192 (CTAEYQVLC) [compound 192],"Value (binding intensity of His-tagged CD38), LOOP7 conformational peptide array",492 mAU
164 (CNSRDQNFVILEFPVEC) [compound 164],"Value (binding intensity of His-tagged CD38), LOOP15 conformational peptide array",965 mAU
178 (CMLFYKDDC) [compound 178],"Value (binding intensity of His-tagged CD38), LOOP7 conformational peptide array",542 mAU
100 (SSRISKVSSIVVNIT) [compound 100],"Value (binding intensity of His-tagged CD38), LIN15 linear peptide array",168 mAU
207 (CNITELFSC) [compound 207],"Value (binding intensity of His-tagged CD38), LOOP7 conformational peptide array",512 mAU
278 (CESSRISKVSPGVVNITELFSC) [compound 278],"Value (binding intensity of His-tagged CD38), BET conformational peptide array",637 mAU
208 (CRISYDAQC) [compound 208],"Value (binding intensity of His-tagged CD38), LOOP7 conformational peptide array",287 mAU
246 (CYFIPEVRIYDSGTYKC) [compound 246],"Value (binding intensity of His-tagged CD38), LOOP15 conformational peptide array",416 mAU
203 (CSSIVVNIC) [compound 203],"Value (binding intensity of His-tagged CD38), LOOP7 conformational peptide array",364 mAU
184 (CKSTESYFC) [compound 184],"Value (binding intensity of His-tagged CD38), LOOP7 conformational peptide array",339 mAU
182 (CDDVLFYNC) [compound 182],"Value (binding intensity of His-tagged CD38), LOOP7 conformational peptide array",702 mAU
254 (CFVILEFPVEEQDRVLC) [compound 254],"Value (binding intensity of His-tagged CD38), LOOP15 conformational peptide array",550 mAU
197 (CVILEFPVC) [compound 197],"Value (binding intensity of His-tagged CD38), LOOP7 conformational peptide array",527 mAU
275 (CKLKREKNSRPGNFVILEFPVC) [compound 275],"Value (binding intensity of His-tagged CD38), BET conformational peptide array",833 mAU
169 (QKASKEQEGEYYCTA) [compound 169],"Value (binding intensity of His-tagged CD38), LIN15 linear peptide array",316 mAU
225 (CGEYYSTAC) [compound 225],"Value (binding intensity of His-tagged CD38), LOOP7 conformational peptide array",552 mAU
242 (CKSTESYFIPEVRIYDC) [compound 242],"Value (binding intensity of His-tagged CD38), LOOP15 conformational peptide array",528 mAU
247 (CKREKNSRDQNFVILEC) [compound 247],"Value (binding intensity of His-tagged CD38), LOOP15 conformational peptide array",516 mAU
281 (CIVVSEMLSQPGISYDAQFEVC) [compound 281],"Value (binding intensity of His-tagged CD38), BET conformational peptide array",414 mAU
194 (CEYQVLVEC) [compound 194],"Value (binding intensity of His-tagged CD38), LOOP7 conformational peptide array",651 mAU
213 (CPTEDVEYC) [compound 213],"Value (binding intensity of His-tagged CD38), LOOP7 conformational peptide array",407 mAU
198 (CILEFPVEC) [compound 198],"Value (binding intensity of His-tagged CD38), LOOP7 conformational peptide array",537 mAU
